# Experimental data from publication PMC12207370, “Macrocyclic Peptide Probes for Immunomodulatory Protein CD59: Potent Modulators of Bacterial Toxin Activity and Antibody‐Dependent Cytotoxicity” (Angewandte Chemie (International Ed. in English), 2025).
# Target: T1, biotinylated CD59 (Homo sapiens, UniProt P13987)
# T1 construct: Recombinant soluble human CD59 with an additional C-terminal cysteine residue
# T1 sequence (P13987 26-102 limits assumed): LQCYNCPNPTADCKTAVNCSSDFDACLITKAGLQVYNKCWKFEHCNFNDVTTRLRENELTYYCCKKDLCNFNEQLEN
# Experiment: mRNA-display cyclic peptide screen against CD59-biotin, NGS abundance after 6th selection round
# Conditions: for Percentage Seq I: counts normalised by total counts of sample Seq I; for Percentage Seq I / Percentage Seq II: percentage of the pool; for Percentage Seq I / Percentage Seq II / Percentage Average / Percentage of the pool, averaged across the two sequencing samples / Percentage of the pool, Seq I / Percentage of the pool, Seq II: sheet R6; for Percentage Seq II: counts normalised by total counts of sample Seq II; for Percentage Average: percentage of the pool averaged across the two sequencing samples; for Counts Seq I / Counts Seq II: raw NGS counts of peptide sequence; for Counts Seq I: sequencing sample Seq I; for Counts Seq I / Counts Seq II / Counts (raw counts for peptide sequence), Seq I / Counts (raw counts for peptide sequence), Seq II: sheet R6 (6th selection round); for Counts Seq II: sequencing sample Seq II; for Counts (raw counts for peptide sequence), Seq I: NGS sample Seq I; for Counts (raw counts for peptide sequence), Seq II: NGS sample Seq II; for Percentage of the pool, averaged across the two sequencing samples: average of Seq I and Seq II; for Percentage of the pool, Seq I: counts normalised by total counts of NGS sample Seq I; for Percentage of the pool, Seq II: counts normalised by total counts of NGS sample Seq II
# How it was run: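 Peptide–mRNA fusions were made by in vitro translation with a customised PURE express kit. The kit lacked release factor 1 and methionine and was supplemented with […] initiator tRNA carrying N-chloroacetyl-d-tyrosine. Thioether macrocycles were formed, then enriched and amplified over iterative rounds on CD59-biotin immobilised on streptavidin beads. NGS read counts per sequence were recorded after the 6th selection round.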
Sequence,Percentage Seq I,Percentage Seq II,Percentage Average,Counts Seq I,Counts Seq II,"Counts (raw counts for peptide sequence), Seq I","Counts (raw counts for peptide sequence), Seq II","Percentage of the pool, averaged across the two sequencing samples","Percentage of the pool, Seq I","Percentage of the pool, Seq II"
SWTWGNRSSARG,0.025%,0.035%,0.030%,110,15,–,–,–,–,–
SWTWGNRSSVLG,–,–,–,–,–,35,7,0.012%,0.008%,0.016%
SWTWGNRSSVRG,2.910%,2.799%,2.855%,12733,1206,–,–,–,–,–
SWTWGNRSSVSG,–,–,–,–,–,73,2,0.011%,0.017%,0.00464%
SWTWGNRSTVRG,0.011%,0.026%,0.018%,49,11,–,–,–,–,–
SWTWGNRTSVRG,–,–,–,–,–,36,7,0.012%,0.008%,0.016%
SYGGRTFIYAWS,–,–,–,–,–,62,5,0.013%,0.014%,0.012%
TAWGNRQIQYY,–,–,–,–,–,73,7,0.016%,0.017%,0.016%
TFAHRVGSCQST,0.019%,0.026%,0.022%,85,11,–,–,–,–,–
TFRKRLTATCGT,0.016%,0.028%,0.022%,68,12,–,–,–,–,–
TFRSRTSCGAV,–,–,–,–,–,51,7,0.014%,0.012%,0.016%
TILGNKHYVRG,0.140%,0.160%,0.150%,614,69,–,–,–,–,–
TISGGRDYTRG,0.948%,0.935%,0.941%,4146,403,–,–,–,–,–
TLSTNRDLIRLLAAAAAAARTGGG,–,–,–,–,–,57,9,0.017%,0.013%,0.021%
TLSTNRDLIRLPAAAAAAARTGGG,–,–,–,–,–,63,7,0.015%,0.014%,0.016%
TSYGSRVFAYF,0.031%,0.030%,0.031%,135,13,–,–,–,–,–
TYGSRFCPQYCAAAAAAARTGGG,0.030%,0.037%,0.034%,133,16,–,–,–,–,–
VAHGSKKSQFW,0.088%,0.104%,0.096%,386,45,–,–,–,–,–

Sequence,Percentage Seq I,Percentage Seq II,Percentage Average,Counts Seq I,Counts Seq II,"Counts (raw counts for peptide sequence), Seq I","Counts (raw counts for peptide sequence), Seq II","Percentage of the pool, averaged across the two sequencing samples","Percentage of the pool, Seq I","Percentage of the pool, Seq II"
VAHGSKNSQFW,0.349%,0.325%,0.337%,1526,140,–,–,–,–,–
VARGDWNHQFY,–,–,–,–,–,40,7,0.013%,0.009%,0.016%
VARGNSNTVWG,0.019%,0.021%,0.020%,85,9,–,–,–,–,–
VARGSKDWRWS,–,–,–,–,–,41,6,0.012%,0.009%,0.014%
VASGGRYWSRA,0.103%,0.139%,0.121%,449,60,–,–,–,–,–
VIWGSRLATGG,0.025%,0.026%,0.025%,109,11,–,–,–,–,–
VKYGNSNFVRE,0.047%,0.060%,0.054%,207,26,–,–,–,–,–
VKYGNSNFVRG,0.660%,0.657%,0.659%,2889,283,–,–,–,–,–
VLCHRWHVGSHR,–,–,–,–,–,54,7,0.014%,0.012%,0.016%
VSRGDSTYTLF,0.031%,0.028%,0.030%,137,12,–,–,–,–,–
VVHGGKDYQWS,–,–,–,–,–,64,5,0.013%,0.015%,0.012%
VVRGGTAFRYE,0.022%,0.026%,0.024%,96,11,–,–,–,–,–
VWGNRWTRIYW,0.037%,0.035%,0.036%,161,15,–,–,–,–,–
VYGSRYASIPFC,–,–,–,–,–,45,9,0.016%,0.010%,0.021%
WAKGSDTFTSG,–,–,–,–,–,141,1,0.017%,0.032%,0.00232%
WATGSATFSSG,0.730%,0.673%,0.702%,3196,290,–,–,–,–,–
WILGSRWWTQR,0.021%,0.021%,0.021%,91,9,–,–,–,–,–
